Assay: yeast display, Sf9 membrane polyspecificity reagent, FACS + sequencing; frameworks hold sequencing errors
Outline: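 A nanobody's polyreactivity label depends on the gate it was sorted from. Yeast display cells were stained with 10% biotinylated, detergent-solubilized Sf9 membrane reagent for 1 hour at 4 °C, enriched on streptavidin microbeads and sorted by FACS. The low and high (top ~1%) gates were set on anti-HA fluorescence for expression and streptavidin fluorescence for reagent binding.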

Sequence	polyreactivity (PSR sort gate)
QVQLVESGGGIVQAGGSLRLSCAASGSIFTRYAMGWYRPAPGKERELVAAITKSGSRTYYADSVKGRFTISRDNAKNTVYLQLNCLIAEDTAVFYCATLQGDSSSQYDYWGQGTQVTVSS	high polyreactivity
QVQLVESGGGIVQAGGSLRLSCAASGSIFTVNALGWYRQAPGKERELVAAITFGGGRTYYADSVKGRFTISRDNAKNTVYLQMNSLKPEDTAVYYCAVSRKGLGSVEYWGQGTQVTVSS	low polyreactivity
QVQLVESGGGIVQAGGSLRLSCAASGSILDPNAMGTYRQAPGKEREFVASISASGGSTYYADSVKGRFSISRDIAKNTVYLQLNSLKPEDTAVYYCATLQGDSSSQYDYWGQGTQVTVSS	high polyreactivity
QVQLVESGGGIVQAGGSLRLSCAASGSTFDRYAMGWYRQAPGKERALVAAISWSGGSTYYADSVKGRFTISRDNAKNTVFLQMNSLKPEDTAVYYCNTASYYRRFHKYDYWGQGTQVTVSS	high polyreactivity
QVQLVESGGGIVQAGGSLRLSCAASGSTFKSYAMGWYRQAPGKERELVAAITHRGSTYYADSVKGSFTISRDNAKNTVYLQMKSLKPEDTAVYYCNVRRICNGRRVDYWGQGTQVTVSS	high polyreactivity
QVQLVESGGGIVQAGGSLRLSCAASGSTFSKYAMGWYRQAPGNERELVAAISSRGGSTYYADSVKGRFTISRDNAKNTVYLQMNCLKPEDTAVYYCAAKFYAEYGYWGHGTQVTVSS	high polyreactivity
QVQLVESGGGIVQAGGSLRLSCAASGSTFYKYAMGWYRQAPGKERELVASISRSGGSTSYADSVKGRFTISRDNAKNTVYLQMNSLKPEDTAVYYCAARSLSWTPYYYWGQGTQVTVSS	high polyreactivity
QVQLVESGGGIVQAGGSLRLSCAASGSTGFNTMGWYRQAPGKERELVAAIRATGGSTYYADSVKGRFTISRDNAKNTVYLQMNSLKPEDTAVYYCAAKWFRQYLRQDRYYYWGQGTQVTVSS	high polyreactivity
QVQLVESGGGIVQAGGSLRLSCAASGSTLGSNSMGWYRQAPGKERELVAAITWSGGTTYYADSVKGRFTISRDNAKNTVYLQMNSLKPEYTAVYYCATGQSVIYRYEYWGQGTQVTVSS	low polyreactivity
QVQLVESGGGIVQAGGSLRLSCAASGSTLRWNAMGWYRQAPGKERELVAAIRWSTGSTYYADSVKGRFTISRDNAKNTVYLQMNSLKPEDTAVYYCAARQGRARTPNDHNYWGQGTKVTVSS	high polyreactivity
QVQLVESGGGIVQAGGSLRLSCAASGSTLYLYVMGWYRQAPGKERELVAVISSSSGRTYYADSVKGRFTISRDNAKNTVYLQMNSLKPEDTAVYYCAADNYVGYHWYNYWGQGTQVTVSS	high polyreactivity
QVQLVESGGGIVQAGGSLRLSCAASGSTYYGYTMGWYRQAPGKERELVAVITSGGSTYYADSVKGRFTISRDNAKNTVYLQMNILKPEDRAVYYCAKRYGYPAYGRPWRIGRTYDYWGQGTQVTVSS	low polyreactivity
QVQLVESGGGIVQAGGSLRLSCAASGYTFPRYAMGWYRQAPGKERELVAAITSRGGSTYYADSVKGRFTISRDNAKNTVYLQMNSLKPEDTAVYYCAVLGFGALDFDSWGQGTQVTVSS	high polyreactivity
QVQLVESGGGIVQAGGSLRLSCAASGYTYPRYTMGWYRQAPGKERELVAVIRRSGGTHYADSVKGRFTISRDNAKNTVYLHMNRLKPEETAVYYCAVVSFLPNIPYGYWGQGTQVTVSS	high polyreactivity
QVQLVESGGGIVQAGGSLRLSCADSGFTFAFYAMGRYRQAPRKERELVAAISSGGGNTYYADSVKGRFTISRDNAKNTVYLQMNSLNPEDTAVYYCATRYISQGGYWGQGTQVTVSS	high polyreactivity
QVQLVESGGGIVQAGGSLRLSCAGSGGILGDNTMGWYGHAPGKERELGASITRGGTTNYADSLTGRFTISREHAKNTVYFQKISLKPVDTAVYYCNAAVERFGDSPDYDYWGQGTQVTVSS	low polyreactivity
QVQLVESGGGIVQAGGSLRLSCASSGFTLGLYAMGWYRQAPGKERELVAVISGRGSRTYYADSVKGRFTISRDNAKNTVYLQMNSLKPEDTAVYYCAASYRTYYRTGYDYWGQGTQVTVSS	high polyreactivity
QVQLVESGGGIVQAGGSLRLSCPASGLTFIYYAMGWYRQAPGKERELVAAITRGTSTYYADSVKGRFTISRDNAKNTVYLQMNSLKPEDTAVYDCAAKSRRVRTYNYWGQGTQVTVSS	high polyreactivity
QVQLVESGGGIVQAGGSLRLSRAASGFTFPFYAMRWYRQAHGKERELVAAISQSGVRTYYADSVKGRFTISRDNAKNSVYLLMNSLKPEDTAVYYCAATSLNTRTGYWGQGTQVTVSS	high polyreactivity
QVQLVESGGGIVQAGGSLRLSSAATGRIYAKNAMGWYRQAPGKERELVAAINHSVGSTYYADSVKARFTISRDNANNTVYLQMISLIQEDTAVYYCATLQGDSSSQYDYWGQGTQVTVSS	high polyreactivity
QVQLVESGGGIVQAGGSLRLTCAASGRIFIYYYMGWYRQAPGKERELVADITLSGGSTYYADSVKGRFTISRDNAKNNVYLQMTSLKPEDTAVYYCAATRRYWKIFFGDGDYWGQATQVTVSS	high polyreactivity
QVQLVESGGGIVQAGGSLRVSCAASGRTFWGYAMGWYRQAPGKERELVAALNKSGGSTYYADSVKGRFTISRDNAKNTVYLQKNSLNPEDTAVYYCIAVYYWYKGDYWGQGTQVTVSS	high polyreactivity

Sequence	polyreactivity (PSR sort gate)
QVQLVESGGGIVQAGRSLRVSCADSGSAFPRYDMGWYRPAPGKERELVAAISRGGSTNYADSVKGRFTLSRDNATNSVSLQMFCLIPVDPAVYYCAAQIFESAYGIVYWGQRTQVTVSS	low polyreactivity
QVQLVESGGGIVQAGVSLRLSCAASGITFIRYAMGWYRQAPGKERELVAAISSSGGSTYYADSVKGRFTISRDNAKNTVYLQMISLKPEDTAVYYCAARIPDRQDGYGYWGQGTQVTVSS	high polyreactivity
QVQLVESGGGKVQAGGSLRLSCAASGLTFWSYAMGWYRQAPGKERELVAAISGTGGRTYYADSVKGRFTITRDNAKNTVYLQMTSLKPEDTAVYYCTARTWRWYFTFDYWGQGTQVNVSS	high polyreactivity
QVQLVESGGGKVQAGGSLRLSCPPSGRTFYYYAMGWYRQAPGKVRELVAVIRSSGDSTYYADSVKGRFTISRDNEKNTVYLQMKSLKPDDTAVDYCAADAPSRSYSWHPRYYYWGQGSQVTVSS	low polyreactivity
QVQLVESGGGLAQAGGSLRLTCAASGNTFPLYPMGWYRQAPGKERELFAAISQRGGSTYYSDSVKGRFTISRDYAKNTVYLQMNSLKPEDTAFYYCAATWADEYQYRRYYYWGQGTQVTVSS	high polyreactivity
QVQLVESGGGLDQAGGSLPLSCASSGSIFRSNAMGWSRQPPAKAREMVAAITESGDTTNYADSVKGRFTISRDNAKNTVYLQMNSLKPEDTAVYYCNAGWTMSYVYSQMDYWGQGTQVTVSS	low polyreactivity
QVQLVESGGGLDQAGGSLRLICAASGSTFGGYVMGWYRQAPGKERELVAAISRSGASTYYADSVKGRFTISRDNAKNTVYLQMNSLKPEDTAVYYCAAYQARGMDYWGQGTQVTVSS	high polyreactivity
QVQLVESGGGLDQAGGSLRLICASSGRTFYPNAMGWYRQAPGKEREFVAAITWSGGGTFYADSVKGRFTISRDHAKNTVYLQMLSLNPEDTAVYYCAARLDTYQTQSVITPAALYYWGQGTQETVSS	low polyreactivity
QVQLVESGGGLDQAGGSLRLSCAAAGFIFHLNAMGWYRQAPGKERELLASIRSSGDSTHYADSEKGRFTISRDNAKITVYLQMNSLKPEDTAVFYCNADFYPAGTLTYDYWGQGTQVTVSS	low polyreactivity
QVQLVESGGGLDQAGGSLRLSCAASARTFTYYAMGWYRQAPGKERELVAAIRWTGDSTYYADSVKGRFTISRDYAKNTVYLQMNSLKPEDTAVYYCAKQARWQYDGGIRWYYYWGQGTQVTVSS	high polyreactivity
QVQLVESGGGLDQAGGSLRLSCAASGFAFSYYAMGWYRQAPGKEREFVASIDWSGGSTYYADSVKGRFTISRDNAKNTVYLQMNSLKPEDTAVYYCAAELDYFPGYDYWGQGTQVTVSS	low polyreactivity
QVQLVESGGGLDQAGGSLRLSCAASGFIFFINDMGWYRQAPGKERELVAAISWSGGSTYYADSVKGRFTISRDNAKNTVYLQMNSLKPEDTAVYYCNTDVPTAQYDYWGQGTQVTVSS	low polyreactivity
QVQLVESGGGLDQAGGSLRLSCAASGFIFFRYAMGWYRQAPGKERELVAGNNGSDGSTYYADSVKGRFTISRDNAKNTVYLQMNSLKPEDTAVYYCAAEGGFSPQPYNLYYATPREDYWGQGTQVTVSS	low polyreactivity
QVQLVESGGGLDQAGGSLRLSCAASGFIFPIYAMGWNRQAPGKERELVAAISWSGGSTYYADSVKGRFTISRDNAKNTVYLQMNSLKPEDTAVYYCAKRYPYYPYDYWGQGTQVTVSS	high polyreactivity
QVQLVESGGGLDQAGGSLRLSCAASGFIFPVYAMGWSRPAPGKERELVAAIRRGGSTNYADSVKGRFTISRDNAKNTVYVQMNSLKPEDTAVYYCAKTIGLKHEDEYWGQGTQVTVSS	low polyreactivity
QVQLVESGGGLDQAGGSLRLSCAASGFIFYSNAMGWYRQAPGKERELVAAISRGGGSTYYADSVKGRFTISRDNAKNTVYLQLNSLKPEDTAVYYCAKRRLSPQDDYWGQGTQVTLSS	high polyreactivity
QVQLVESGGGLDQAGGSLRLSCAASGFIINRNAMGWYRQAPGKERELVADITGGSTYYADSVKGRFTISRDNAKNTVYLQMNSLKPEDNAVYYCAADVLRITTLLFRGTGFDSWGHGTQVTVSS	low polyreactivity
QVQLVESGGGLDQAGGSLRLSCAASGFIYSYAMGWYRQAPGKERELVAAIRRGGPTNYADSVKGRFSISRDNAKTTVYLPMNSRKPEDTAVYYCAADSWFRRNEYDDWGQGTQVTVAS	high polyreactivity
QVQLVESGGGLDQAGGSLRLSCAASGFTLDYYTMGRYRQAPGKERELVAAISWIGTSTYYADSVKGRFTISRDNAKNTVYLQMNSLKPEDTAVYYCAAVGASVDDYYWGQGTQVTVSS	high polyreactivity
QVQLVESGGGLDQAGGSLRLSCAASGIIFARNAMGWYRQAPGKERELVAAISGSGGRTYYADSVKGRFTISRDNAKNTVYLQMNSLKPEDTAVYYCAAEYTYRAVALDYWGQGTQVTVSS	high polyreactivity
QVQLVESGGGLDQAGGSLRLSCAASGIIFLSYAMGRYRQAPGKERELVAAIRSRGDSTYYADSVKGRFTNSRDNAKNTVYLQMNSLKPEDTAVYYCNARQRRYPYGYWGQGTQVTVSS	high polyreactivity

Reference: the nanobody polyreactivity screen of Harvey et al. (2022)
